This passage reports Kd and percent of maximal DM binding results from publication PMC3018327 (Nature immunology, 2010).

Broadly, the Kd is a measure of binding affinity in units of concentration. A lower Kd goes with tighter binding.

This test concerns the target soluble HLA-DM, wild type (DM WT) (human) (UniProt P28067). Briefly: SPR. A general note: In SPR one partner is held on a chip, and binding of the other changes the refractive index at the surface.

In turn, “DR1 (DRα V65C) with disulfide-linked HA6 P2-P11 peptide (from UniProt P01903) (peptide-MHC)” returned a Kd of 1000 nM and a percent of maximal DM binding at pH 7.0 of 40%.
